Where “and” joins values, the source holds several entries; their conditions need not be identical. Identical values can stand only once.
Legend:
[1] = target: T1, Extracellular domain (ECD) of the canine IL-4 receptor alpha-AviTag-His Tag (canine); assay: SPR, IgG captured via anti-dog H+L
T1 construct: expressed in CHO cells; also called canine IL-4RA; canine IL4Ra
T1 chain: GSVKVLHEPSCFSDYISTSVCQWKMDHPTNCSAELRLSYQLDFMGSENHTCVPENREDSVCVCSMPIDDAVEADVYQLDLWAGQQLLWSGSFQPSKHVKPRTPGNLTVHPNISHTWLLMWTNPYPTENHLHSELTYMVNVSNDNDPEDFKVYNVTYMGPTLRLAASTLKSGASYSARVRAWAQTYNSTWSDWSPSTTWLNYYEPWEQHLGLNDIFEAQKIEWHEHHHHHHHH

[2] = target: canine IL-4RA (construct not given) (canine); assay: SPR, combinatorial Fab-SASA clone
[3] = target: T2, Extracellular domain (ECD) of the canine IL-4 receptor alpha-V5 epitope-AviTag-His Tag (canine); assay: SPR, Fab-SASA captured on BSA;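 also: biacore T200 SPR, Fab-SASA variants from E. coli conditioned medium captured on BSA-coated CM5 chip, canine IL-4RA injected 120 s then 420 s dissociation, 1:1 model fit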
T2 construct: monomeric form isolated by size exclusion; also called canine IL-4RA-V5-Avi-His; canine IL-4RA
T2 chain: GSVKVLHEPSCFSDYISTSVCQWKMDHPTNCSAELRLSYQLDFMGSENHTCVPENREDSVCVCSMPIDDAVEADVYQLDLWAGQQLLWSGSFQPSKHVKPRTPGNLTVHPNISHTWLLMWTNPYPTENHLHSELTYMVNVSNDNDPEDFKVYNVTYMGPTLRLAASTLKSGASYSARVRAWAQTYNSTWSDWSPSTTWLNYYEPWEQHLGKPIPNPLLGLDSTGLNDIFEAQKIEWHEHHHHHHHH

[4] = target: canine IL-4RA on canine DH82 cells (canine); assay: cell-based or functional assay
[5] = target: T1, Extracellular domain (ECD) of the …; assay: SPR, IgG captured via anti-dog Fc;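 also: biacore T200 SPR with antibodies captured on CM5 chip bearing anti-dog Fc, 120 s association then 600 s dissociation, double-referenced sensorgrams fitted with 1:1 binding model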
[6] = target: canine IL-4RA on canine DH82 cells (canine); assay: cell-based or functional assay; remark: listed apart in the source

B1: TB640_275 (antibody, V domains shown)
VH: EVQLVESGGDLVKPGGSLRLSCVASGFTFRDYAMDWVRQAPGKGLQWLSLISGSGGKTYYADAVKGRFTISRDNAKNTLYLQMNSLRAEDTAVYYCAVDRLTKTIRPQYYGLWVWGQGTLVTVSS
VL: DIVMTQTPLSLSVSPGETASISCRSSQSLLYSIGYNYLDWYMQKPGQSPQGLIYLGSKRASGVSDRFSGSGSGADFTLKISRVEADDAGVYYCMQGLQSPLTFGQGTKLEIKR
notes: also called TB640_275-H + TB640_275-L
Kd [1]: 1.71 nM
koff [1]: 0.000487 s⁻¹
kon [1]: 287000 M⁻¹ s⁻¹

B2: TB640_005 Fab-SASA wild type (Fab, V domains shown)
VH: EVQLVESGGDLVKPGGSLRLSCVASGFTFRDYAMTWVRQAPGKGLQWVSLISGSGGKTYYADAVKGRFTISRDNAKNTLYLQMNSLRAEDTAVYYCAVDRLTKTIRPQYYGLWVWGQGTLVTVSS
VL: DIVMTQTPLSLSVSPGETASISCRSSQSLLYSIGYNYLDWYLQKPGQSPQGLIYLGSKRASGVPDRFSGSGSGTDFTLRISRVEANDTGVYYCMQGLQSPLTFGQGTKLEIKR
notes: secreted from E. coli, tested in conditioned medium; also called WT; not shown: SASA tag then His-tag
Kd [2]: 6.07 nM
koff [2]: 0.00116 s⁻¹
kon [2]: 191000 M⁻¹ s⁻¹
Kd [3]: 13 nM and 13.3 nM and 13.2 nM
Ratio WT-kd/clone-kd [3]: 1
koff [3]: 0.000952 s⁻¹ and 0.000953 s⁻¹
kon [3]: 73100 M⁻¹ s⁻¹ and 71700 M⁻¹ s⁻¹ and 72400 M⁻¹ s⁻¹

B3: GFmix_PTH-H + GFmix_THS-L (antibody, V domains shown)
VH: EVQLVESGGDLVKPGGSLRLSCVASGFPFRDYAMTWVRQAPGKGLQWLSLISGSGGKTYYADAVKGRFTISRDNAKNTLYLQMNSLRAEDTAVYYCAVDRLTKTIRPQYYGLWHWGQGTLVTVSS
VL: DIVMTQTPLSLSVSPGETASISCRSSQSLTYSIGYNYLDWYMQKPGQSPQGLIYLGSKRASGVSDRFSGSGSGADFTLKISRVEADDAGVYYCMQGLHSPLGFGQGTKLEIKR
IC50: % inhibition of STAT6 phosphorylation (AlphaLISA pSTAT6) in canine DH82 cells stimulated with 20 ng/mL canine IL-4 [4]: 1.03 nM
Kd [5]: 0.171 nM
koff [5]: 7.78e-05 s⁻¹
kon [5]: 458000 M⁻¹ s⁻¹
IC50: % inhibition of STAT6 phosphorylation (AlphaLISA pSTAT6) in canine DH82 cells stimulated with 50 ng/mL canine IL-13 [6]: 0.21 nM

Reference: US20250188176A1 (INVETX, published 2025)
